Experimental data taken from article PMC6663034, “ACAP1 assembles into an unusual protein lattice for membrane deformation through multiple stages” (PLoS Computational Biology, 2019).

Molecular target: the molecule itself
Assay: cryo-EM structure; cryo-electron tomography and sub-tomogram averaging of the ACAP1^BAR-PH coat on non-tubulated (spherical) portions of liposomes; average of 233 coat particles; dimer model PDB 4CKG fitted into the density; dimers to tetramer on membrane

B1: ACAP1^BAR-PH (a.a. 1-377) (domain or fragment, UniProt Q15027 1-377, looked up)
chain: MTVKLDFEECLKDSPRFRASIELVEAEVSELETRLEKLLKLGTGLLESGRHYLAASRAFVVGICDLARLGPPEPMMAECLEKFTVSLNHKLDSHAELLDATQHTLQQQIQTLVKEGLRGFREARRDFWRGAESLEAALTHNAEVPRRRAQEAEEAGAALRTARAGYRGRALDYALQINVIEDKRKFDIMEFVLRLVEAQATHFQQGHEELSRLSQYRKELGAQLHQLVLNSAREKRDMEQRHVLLKQKELGGEEPEPSLREGPGGLVMEGHLFKRASNAFKTWSRRWFTIQSNQLVYQKKYKDPVTVVVDDLRLCTVKLCPDSERRFCFEVVSTSKSCLLQADSERLLQLWVSAVQSSIASAFSQARLDDSPRGPGQ
notes: ACAP1 (Arfgap with Coil-coil, Ankryin repeat, PH domain 1), BAR-PH tandem, a.a; 1-377; also called BAR-PH tandem of ACAP1; wild-type ACAP1^BAR-PH; source: E. coli BL21 (DE3), purified (glutathione-Sepharose 4B, GST removed with Precision Protease)
Question: Which “stoichiometry N” value does the source give for B1 here?
Answer: Its value is 4.
